Laboratory results published in patent US20070089183.
Substitutions are numbered along the chain they refer to. Names and notes keep the numbering of the source.

B1: DWF1(Δ518-539), full length, expressed in planta from 35S::DWF1(Δ518-539) (protein)
chain: MSDLQTPLVRPKRKKTWVDYFVKFRWIIVIFIVLPFSATFYFLIYLGDMWSESKSFEKRQKEHDENVKKVIKRLKGRDASKDGLVCTARKPWIAVGMRNVDYKRARHFEVDLGEFRNILEINKEKMTARVEPLVNMGQISRATVPMNLSLAVVAELDDLTVGGLINGYGIEGSSHIYGLFADTVEAYEIVLAGGELVRATRDNEYSDLYYAIPWSQGTLGLLVAAEIRLIKVKEYMRLTYIPVKGDLQALAQGYIDSFAPKDGDKSKIPDFVEGMVYNPTEGVMMVGTYASKEEAKKKGNKINNVGWWFKPWFYQHAQTALKKGQFVEYIPTREYYHRHTRCLYWEGKLILPFGDQFWFRYLLGWLMPPKVSLLKATQGEAIRNYYHDMHVIQDMLVPLYKVGDALEWVHREMEVYPIWLCPHKLFKQPIKGQIYPEPGFEYENRQGDTEDAQMYTDVGVYYAPGCVLRGEEFDGSEAVRRMEKWLIENHGFQPQYAVSELDEKSFWRMFNGELYEEKTEKEVREAEQAHLETAYAEAD
B2: DWF1(V531D), full length, expressed in planta from 35S::DWF1(V531D) (protein)
chain: MSDLQTPLVRPKRKKTWVDYFVKFRWIIVIFIVLPFSATFYFLIYLGDMWSESKSFEKRQKEHDENVKKVIKRLKGRDASKDGLVCTARKPWIAVGMRNVDYKRARHFEVDLGEFRNILEINKEKMTARVEPLVNMGQISRATVPMNLSLAVVAELDDLTVGGLINGYGIEGSSHIYGLFADTVEAYEIVLAGGELVRATRDNEYSDLYYAIPWSQGTLGLLVAAEIRLIKVKEYMRLTYIPVKGDLQALAQGYIDSFAPKDGDKSKIPDFVEGMVYNPTEGVMMVGTYASKEEAKKKGNKINNVGWWFKPWFYQHAQTALKKGQFVEYIPTREYYHRHTRCLYWEGKLILPFGDQFWFRYLLGWLMPPKVSLLKATQGEAIRNYYHDMHVIQDMLVPLYKVGDALEWVHREMEVYPIWLCPHKLFKQPIKGQIYPEPGFEYENRQGDTEDAQMYTDVGVYYAPGCVLRGEEFDGSEAVRRMEKWLIENHGFQPQYAVSELDEKSFWRMFNGELYEECRKKYRAIGTFMSDYYKSKKGRKTEKEVREAEQAHLETAYAEAD
B3: DWF1(KYR521-523DGD), full length, expressed in planta from 35S::DWF1(KYR521-523DGD) (protein)
chain: B2 chain with K521D, Y522G, R523D, D531V

Target: CaM (endogenous calmodulin of Arabidopsis plants)

Protein	complementation of the dwf1 null mutant (plant phenotype)	complementation of the dwf1 null mutant (plant phenotype, height)
B1	grew like the uncomplemented dwf1 mutants	–
B2	–	showed some degree of phenotype rescue, with round, expanded leaves but unextended petioles at the rosette stage and bushy flowering stems reaching up to 40% of the height of the wild-type plant
B3	showed very slight phenotypic rescue	–
